PMC13544220, “Glycemic and bodyweight effects of GIPR coding variation reflect differences in surface expression and intrinsic functional impairment” (Science Advances, 2026)

Tests used:
[1] = tested on: wild-type and variant SNAP-GIPR in Gipr-/- mouse islets; assay: Glucagon secretion from Gipr-/- mouse islets transduced with GIPR adenoviruses; assay type: cell-based; conditions: Fig S6C, Gipr-/- mouse islets
[2] = tested on: wild-type and variant SNAP-GIPR; assay: Surface SNAP-GIPR expression (SNAP-tag labelling) in AD293 cells; assay type: cell-based, human; conditions: for AD293 Surface: Fig S3E, mean; for Surface SNAP-GIPR expression: sheet Fig 1C;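 for all read-outs here: scaled to the experimental average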
In short: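 Surface GIPR is quantified from wide-field images after labelling intact transfected cells with a membrane-impermeant SNAP probe at 500 nM for 10 min at room temperature. Specific signal, corrected for nontransfected cells, is normalized to the experiment-wide average or to wild-type.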

[3] = tested on: wild-type and variant SNAP-GIPR in Gipr-/- mouse islets; assay: Insulin secretion from Gipr-/- mouse islets transduced with GIPR adenoviruses; assay type: cell-based; conditions: Fig 6D, Gipr-/- mouse islets
[4] = tested on: wild-type and variant SNAP-GIPR in wild-type mouse islets; assay: Insulin secretion from wild-type mouse islets transduced with GIPR adenoviruses; assay type: cell-based; conditions: Fig 6F
In short: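 Groups of 8–10 isolated islets were exposed to agonist or vehicle; secreted insulin was measured in supernatants and content in sonicated lysates. Secretion was expressed as % of total (secreted plus content), then normalized to vehicle and given as fold change.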

[5] = tested on: wild-type and variant SNAP-GIPR in Gipr-/- mouse islets; assay: Surface SNAP-GIPR expression in pancreatic islets; assay type: cell-based, human; conditions: Fig 6B

B1: R101H (protein)
chain: RAETGSKGQTAGELYQRWERYRRECQETLAAAEPPSGLACNGSFDMYVCWDYAAPNATARASCPWYLPWHHHVAAGFVLHQCGSDGQWGLWRDHTQCENPEKNEAFLDQRLILERLQVMYTVGYSLSLATLLLALLILSLFRRLHCTRNYIHINLFTSFMLRAAAILSRDRLLPRPGPYLGDQALALWNQALAACRTAQIVTQYCVGANYTWLLVEGVYLHSLLVLVGGSEEGHFRYYLLLGWGAPALFVIPWVIVRYLYENTQCWERNEVKAIWWIIRTPILMTILINFLIFIRILGILLSKLRTRQMRCRDYRLRLARSTLTLVPLLGVHEVVFAPVTEEQARGALRFAKLGFEIFLSSFQGFLVSVLYCFINKEVQSEIRRGWHHCRLRRSLGEEQRQLPERAFRALPSGSGPGEVPTSRGLSSGTLPGPGNEASRELESYC
B1 was tested, and the “Glucagon secretion, ratio G0.5 + GIP / G0.5” value ([1]; replicate 1) was 1.2225, the “Glucagon secretion, ratio G0.5 + GIP / G0.5” value ([1]; replicate 2) was 1.611 and the “Glucagon secretion, ratio G0.5 + GIP / G0.5” value ([1]; replicate 3) was 0.9333. For the same molecule, the “Glucagon secretion, ratio G0.5 + GIP / G0.5” value ([1]; replicate 4) was 0.8233, the “AD293 Surface” value ([2]; column repeated, paired with cAMP 100 nM) was 0.3592 and the “AD293 Surface” value ([2]; paired with cAMP 100 pM) was 0.3592. For the same molecule, the “Surface SNAP-GIPR expression” value ([2]; replicate 1) was 0.3042, the “Surface SNAP-GIPR expression” value ([2]; replicate 2) was 0.5275 and the “Surface SNAP-GIPR expression” value ([2]; replicate 3) was 0.05814. For the same molecule, the “Surface SNAP-GIPR expression” value ([2]; replicate 4) was 0.1831, the “Surface SNAP-GIPR expression” value ([2]; replicate 5) was 0.7685 and the “Surface SNAP-GIPR expression” value ([2]; replicate 6) was 0.323. For the same molecule, the “Surface SNAP-GIPR expression” value ([2]; replicate 7) was 0.4744, the “Surface SNAP-GIPR expression” value ([2]; replicate 8) was 0.4381 and the “Surface SNAP-GIPR expression” value ([2]; replicate 9) was 0.4341. For the same molecule, the “Surface SNAP-GIPR expression” value ([2]; replicate 10) was 0.6442, the “Surface SNAP-GIPR expression” value ([2]; replicate 11) was 0.4281 and the “Surface SNAP-GIPR expression” value ([2]; replicate 12) was 0.4464. The “Surface SNAP-GIPR expression” value ([2]; replicate 13) was 0.04565, the “Surface SNAP-GIPR expression” value ([2]; replicate 14) was 0.1907 and the “Surface SNAP-GIPR expression” value ([2]; replicate 15) was 0.4569. The “Surface SNAP-GIPR expression” value ([2]; replicate 16) was 0.5164, the “Surface SNAP-GIPR expression” value ([2]; replicate 17) was 0.5151 and the “Surface SNAP-GIPR expression” value ([2]; replicate 18) was 0.4251. The “Surface SNAP-GIPR expression” value ([2]; replicate 19) was 0.384, the “Surface SNAP-GIPR expression” value ([2]; replicate 20) was 0.5015 and the “Surface SNAP-GIPR expression” value ([2]; replicate 21) was 0.5316. For the same molecule, the “Surface SNAP-GIPR expression” value ([2]; replicate 22) was 0.4149, the “Surface SNAP-GIPR expression” value ([2]; replicate 23) was 0.4406 and the “Surface SNAP-GIPR expression” value ([2]; replicate 24) was 0.4166. For the same molecule, the “Surface SNAP-GIPR expression” value ([2]; replicate 25) was 0.3346, the “Surface SNAP-GIPR expression” value ([2]; replicate 26) was 0.3683 and the “Surface SNAP-GIPR expression” value ([2]; replicate 27) was 0.2116. For the same molecule, the “Surface SNAP-GIPR expression” value ([2]; replicate 28) was 0.1755, the “Surface SNAP-GIPR expression” value ([2]; replicate 29) was 0.2709 and the “Surface SNAP-GIPR expression” value ([2]; replicate 30) was 0.3405. For the same molecule, the “Surface SNAP-GIPR expression” value ([2]; replicate 31) was 0.1773, the “Surface SNAP-GIPR expression” value ([2]; replicate 32) was 0.3176 and the “Surface SNAP-GIPR expression” value ([2]; replicate 33) was 0.2814. The “Surface SNAP-GIPR expression” value ([2]; replicate 34) was 0.3758, the “Surface SNAP-GIPR expression” value ([2]; replicate 35) was 0.422 and the “Surface SNAP-GIPR expression” value ([2]; replicate 36) was 0.4366. For the same molecule, the “Surface SNAP-GIPR expression” value ([2]; replicate 37) was 0.2975, the “Surface SNAP-GIPR expression” value ([2]; replicate 38) was 0.1954 and the “Surface SNAP-GIPR expression” value ([2]; replicate 39) was 0.2342. For the same molecule, the “Surface SNAP-GIPR expression” value ([2]; replicate 40) was 0.2038, the “Surface SNAP-GIPR expression” value ([2]; replicate 41) was 0.2137 and the “Insulin secretion, ratio G11 + GIP / G11” value ([3]; replicate 1) was 2.4659. For the same molecule, the “Insulin secretion, ratio G11 + GIP / G11” value ([3]; replicate 2) was 2.05, the “Insulin secretion, ratio G11 + GIP / G11” value ([3]; replicate 3) was 1.407 and the “Insulin secretion, ratio G11 + GIP / G11” value ([3]; replicate 4) was 1.963. For the same molecule, the “Insulin secretion, ratio G11 + GIP / G11” value ([4]; replicate 1) was 1.571, the “Insulin secretion, ratio G11 + GIP / G11” value ([4]; replicate 2) was 6.006 and the “Insulin secretion, ratio G11 + GIP / G11” value ([4]; replicate 3) was 2.0139. The “Insulin secretion, ratio G11 + GIP / G11” value ([4]; replicate 4) was 1.2264, the “Insulin secretion, ratio G11 + GIP / G11” value ([4]; replicate 5) was 0.7288 and the “Surface SNAP-GIPR expression in pancreatic islets” value ([5]; replicate 1) was 0.3446. For the same molecule, the “Surface SNAP-GIPR expression in pancreatic islets” value ([5]; replicate 2) was 0.4042, the “Surface SNAP-GIPR expression in pancreatic islets” value ([5]; replicate 3) was 0.02787 and the “Surface SNAP-GIPR expression in pancreatic islets” value ([5]; replicate 4) was 0.08995. The “Surface SNAP-GIPR expression in pancreatic islets” value ([5]; replicate 5) was -0.05398.
